This note sets out measurements from patent US20220162337A1 (NATIONAL RESEARCH COUNCIL OF CANADA, published 2022).

Experiment [1] concerns the target T1, intact Her2 expressed at the cell surface (human, UniProt P04626 23-1255).
T1 construct: whole, on cells; also called Her2 on SKOV3 cells; Her2 on JIMT-1 cells
In words: flow cytometry on SKOV3 cells, pH 6.0 vs pH 7.3. For orientation: A flow cytometer gives signals particle by particle.
Method: (§1) The cells were washed twice in 200 μL binding buffer, followed by addition of 120 μL 1.0% propidium iodide and samples were then transferred to Multiscreen 96-well plates (60 μm Nylon Mesh, Millipore, Etobicoke, ON) and filtered by centrifugation. The filtrate samples were collected from the Multiscreen receiver plate and transferred to a new V-bottom polypropylene plate at 4° C. Flow cytometric analysis was performed on a BD LSR-Fortessa instrument (BD Biosciences, San Jose, Calif.). […] Median fluorescence intensity (MFI) was reported by analyzing 3000 alive cells per sample with the gating strategy: all cells/singlets/alive cells (PI negative) using BD FACSDiva software (BD Biosciences).
(§2) The designed variants were then reformatted into human IgG1/k FSAs and re-tested on the high-density Her2 cells.

Experiment [2] deals with T1, intact Her2 expressed at the cell …. In words: flow cytometry on SKOV3 cells, pH 6.8 vs pH 7.3.
Method: as §1, §2
Experiment [3] has the same target. In words: flow cytometry on SKOV3 cells, apparent KD, pH 7.3 (Bmax not reached).
Method: as §1, §2
Experiment [4] shares this target. The experiment is described as follows: flow cytometry (FACS) on SKOV3 cells, full-size antibody, pH 5.2.
Method: (§3) Cells in T-75 flasks were washed twice with D-PBS and then dissociated using Cell Dissociation buffer (Sigma, C5914) at 37° C. […] The cells were then washed twice by centrifugation at 233×g, removal of supernatant by aspiration and resuspending the cells in 200 μL binding buffer at 4° C. Detection reagent, either anti-human Fab or Fc AlexaFluor488-(Fab′)² (Jackson Immunochemicals, West Groove, Pa.), was then added at a final concentration of 10 μg/mL and samples were incubated at 4° C., 1 h. The cells were washed twice in 200 μL binding buffer, followed by addition of 120 μL 1.0% propidium iodide and samples were then transferred to Multiscreen 96-well plates (60 μm Nylon Mesh, Millipore, Etobicoke, ON) and filtered by centrifugation. The filtrate samples were collected from the Multiscreen receiver plate and transferred to a new V-bottom polypropylene plate at 4° C. Flow cytometric analysis was performed on a BD LSR-Fortessa instrument (BD Biosciences, San Jose, Calif.). […] Median fluorescence intensity (MFI) was reported by analyzing 3000 alive cells per sample with the gating strategy: all cells/singlets/alive cells (PI negative) using BD FACSDiva software (BD Biosciences).
as §2
Experiment [5] shares this target. In words: flow cytometry (FACS) on SKOV3 cells, full-size antibody, pH 6.0.
Method: as §3, §2
Experiment [6] shares this target. The experiment is described as follows: flow cytometry (FACS) on SKOV3 cells, full-size antibody, pH 6.4.
Method: as §3, §2
The target is the same in experiment [7]. The experiment is described as follows: flow cytometry on SKOV3 cells, apparent KD, pH 5.2; FSA, SKOV3 cells, pH 5.2.
Method: as §1, §2
The target is the same in experiment [8]. The experiment is described as follows: flow cytometry on SKOV3 cells, apparent KD, pH 5.6; FSA, SKOV3 cells, pH 5.6.
Method: as §1, §2
The target is the same in experiment [9]. In words: flow cytometry on SKOV3 cells, apparent KD, pH 6.0; FSA, SKOV3 cells, pH 6.0.
Method: as §1, §2
For experiment [10] the target is unchanged. The experiment is described as follows: flow cytometry on SKOV3 cells, apparent KD, pH 6.4; FSA, SKOV3 cells, pH 6.4.
Method: as §1, §2
Experiment [11] has the same target. In words: flow cytometry on SKOV3 cells, apparent KD, pH 6.8; FSA, SKOV3 cells, pH 6.8.
Method: as §1, §2
For experiment [12] the target is unchanged. The experiment is described as follows: flow cytometry on SKOV3 cells, apparent KD, pH 5.2.
The target is the same in experiment [13]. In words: flow cytometry on SKOV3 cells, apparent KD, pH 5.6.
Experiment [14] shares this target. The experiment is described as follows: flow cytometry on SKOV3 cells, apparent KD, pH 6.0.
For experiment [15] the target is unchanged. The experiment is described as follows: flow cytometry on SKOV3 cells, apparent KD, pH 6.4.
For experiment [16] the target is unchanged. In words: flow cytometry on SKOV3 cells, apparent KD, pH 6.8.
The target is the same in experiment [17]. The experiment is described as follows: flow cytometry on SKOV3 cells, apparent KD, pH 7.3.
Experiment [18] has the same target. The experiment is described as follows: flow cytometry (FACS) on SKOV3 cells, full-size antibody, pH 7.3.
Experiment [19] shares this target. The experiment is described as follows: flow cytometry on JIMT-1 cells (low Her2 density), full-size antibody, pH 6.0.
Experiment [20] shares this target. The experiment is described as follows: flow cytometry on JIMT-1 cells (low Her2 density), full-size antibody, pH 7.3.
Experiment [21] shares this target. The experiment is described as follows: flow cytometry on SKOV3 cells, apparent KD, pH 7.3. The source holds these as a separate data set.
The target in experiment [22] is T2, Recombinant human Her2 extracellular domain (human, UniProt P04626 23-652).
T2 construct: extracellular domain; also called Her2 ectodomain; recombinant Her2 ectodomain
In words: SPR, Fab over immobilized Her2 ectodomain, pH 5.0, 25 C. For orientation: SPR reads the build-up and loss of mass on a sensor chip optically.
Method: (§4) Fab-Her2 interactions were analyzed using a Biacore™ T200 (GE Healthcare, Missisauga, ON) surface plasmon resonance instrument. […] Recombinant human Her2 extracellular domain (ThermoFisher Scientific, Burlington, ON) was immobilized onto a CM-5 sensorchip along with a mock-activated blank control surface for referencing. Her2 was diluted to 10 μg/mL in 10 mM NaOAc immobilization buffer pH 4.5 (Biacore) and immobilized to approximately 200 RUs using the Biacore control software Immobilization Wizard with standard NHS/EDC amine coupling. […] Fab samples were injected at 100 4/min with a contact time of 90 s and a 1200-s dissociation using either pH 5.0 or 7.4 running buffer. Sensorgrams were double referenced to the mock-activated blank sensor surface and analyzed for kinetic determination using a 1:1 binding model in BiaEvaluation software v3.1 (GE Healthcare).

Experiment [23] addresses T2, Recombinant human Her2 extracellular …. In words: SPR, Fab over immobilized Her2 ectodomain, pH 7.4, 25 C.
Method: as §4
Experiment [24] has as its target T1, intact Her2 expressed at the cell …. In words: flow cytometry on SKOV3 cells, apparent KD, pH 5.2 (Bmax not reached).
Experiment [25] has as its target T2, Recombinant human Her2 extracellular …. The experiment is described as follows: SPR, pH 5.0 vs pH 7.4.
Method: as §4
Experiment [26] addresses T1, intact Her2 expressed at the cell …. The experiment is described as follows: flow cytometry on SKOV3 cells, pH 5.2, against bH1-P5 and bH1-P5P7 Fabs.
Method: (§5) The cells were then washed twice by centrifugation at 233×g, removal of supernatant by aspiration and resuspending the cells in 200 μL binding buffer at 4° C. Detection reagent, either anti-human Fab or Fc AlexaFluor488-(Fab′)² (Jackson Immunochemicals, West Groove, Pa.), was then added at a final concentration of 10 μg/mL and samples were incubated at 4° C., 1 h. The cells were washed twice in 200 μL binding buffer, followed by addition of 120 μL 1.0% propidium iodide and samples were then transferred to Multiscreen 96-well plates (60 μm Nylon Mesh, Millipore, Etobicoke, ON) and filtered by centrifugation. The filtrate samples were collected from the Multiscreen receiver plate and transferred to a new V-bottom polypropylene plate at 4° C. Flow cytometric analysis was performed on a BD LSR-Fortessa instrument (BD Biosciences, San Jose, Calif.). […] Median fluorescence intensity (MFI) was reported by analyzing 3000 alive cells per sample with the gating strategy: all cells/singlets/alive cells (PI negative) using BD FACSDiva software (BD Biosciences).
The target of experiment [27] is T2, Recombinant human Her2 extracellular …. In words: SPR, acidic pH 5.0 vs physiological pH 7.4, relative to the parent bH1.
Method: as §4
Experiment [28] deals with T1, intact Her2 expressed at the cell …. The experiment is described as follows: flow cytometry on SKOV3 cells, apparent KD, pH 5.2 (Bmax not reached); Fab, SKOV3 cells, pH 5.2 (acidic); approximate, Bmax not reached.
Method: as §5
For experiment [29] the target is unchanged. In words: cell-based or functional assay.

Residue numbers refer to the chain shown, from its start. Numbers in names are those of the source.

B1: bH1-P5P7-FSA (antibody, human IgG1, kappa, V domains shown)
VH: not shown
VL: DIQMTQSPSSLSASVGDRVTITCRASQDIPHSISGYVAWYQQKPGKAPKLLIYWGSYLYSGVPSRFSGSGSGTDFTLTISSLQPEDFATYYCQQHYTTPPTFGQGTKVEIKR
notes: also called bH1-P5P7 full-size antibody
For B1, the “fold pH-selectivity, pH 6.0 over pH 7.3” value in experiment [1] was > 10 fold. In addition, in [2], the “fold pH-selectivity, pH 6.8 over pH 7.3” value is ~25 fold. The Kd in experiment [3] is ~716 nM; in [7], 8.4 nM; in [8], 9.5 nM; in [9], 9.7 nM; in [10], 16 nM; in [11], 29.7 nM. Moreover, the EC50 (read off the curve) (in general, the concentration at which the effect is half-maximal) was ~8 nM in [4], ~10 nM in [5] and ~20 nM in [6].

B2: parental bH1-FSA (full-size human IgG1/k antibody) (antibody, V domains shown)
VH: not shown
VL: B1 VL with H31R
Regarding B2, the Kd in experiment [12] amounted to 2.6 nM; in experiment [13] it was 1.5 nM; in experiment [14] it was 2.9 nM; in experiment [15], 2.9 nM; in experiment [16], 2 nM; in experiment [17], 4.1 nM. In addition, the “EC50 (read off the curve)” value in [4] is ~3 nM; in [5] it was ~3 nM; in [6], ~3 nM; in experiment [18], ~4 nM; in [19], ~2 nM; in [20] it was ~2 nM.

B3: parental bH1-Fab (Fab, V domains shown)
VH: not shown
VL: B1 VL with H31R
In the case of B3, the Kd is 21.3 nM in experiment [21], 13 nM in experiment [22], 3 nM in [23] and ~41 nM in [24].

B4: bH1-P8 (L-S30bH) Fab (Fab, V domains shown)
VH: not shown
VL: B1 VL with H31R, S32H
Take B4: the Kd in [22] was 9.9 nM; in experiment [23] it was 3.4 nM.

B5: bH1-P7 (L-R30aH) Fab (Fab, V domains shown)
VH: not shown
VL: B1 VL
With B5, the Kd in [22] was 17 nM; in [23] it was 5.7 nM.

B6: bH1-P6 (H-Y100aH) Fab (Fab, V domains shown)
VH: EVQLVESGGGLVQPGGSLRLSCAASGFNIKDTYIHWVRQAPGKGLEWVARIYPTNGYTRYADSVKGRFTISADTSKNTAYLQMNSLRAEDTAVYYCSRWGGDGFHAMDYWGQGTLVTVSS
VL: B1 VL with H31R
On to B6, for which, in experiment [23], the Kd was 10 nM, the off-rate (koff) (commonly the rate constant with which the complex falls apart) came to 0.0048 s⁻¹ and the kon (commonly a measure of how fast the partners come together) stood at 480000 M⁻¹ s⁻¹.

B7: bH1-P5P8 (H-R58H,L-S30bH) Fab (Fab, V domains shown)
VH: not shown
VL: B1 VL with H31R, S32H
notes: also called bH1-P5P8-Fab; bH1-P5P8 Fab
In the case of B7, the “fold stronger binding at acidic pH than at physiological pH” value in experiment [25] was ~6 fold. In [22], the Kd is 50 nM, the koff was found to be 0.0037 s⁻¹ and the kon stood at 90000 M⁻¹ s⁻¹. Also, in experiment [23], the Kd stood at 290 nM, the dissociation rate constant (koff) was found to be 0.011 s⁻¹ and the kon worked out at 40000 M⁻¹ s⁻¹. The “fold stronger affinity than bH1-P5 and bH1-P5P7” value in [26] is ~2 fold. For the same molecule, the ΔΔΔGbinding in [27] was -1.91 kcal/mol. Moreover, the Kd in [28] was ~93 nM.

B8: bH1-P5P7 (H-R58H,L-R30aH) Fab (Fab, V domains shown)
VH: not shown
VL: B1 VL
notes: also called bH1-P5P7-Fab
For the molecule B8, the “fold stronger binding at acidic pH than at physiological pH” value in experiment [25] was ~6 fold. The figures for the Kd in experiment [22], in [23] and in [28] were 90 nM, 530 nM and ~178 nM, respectively. Moreover, the dissociation rate constant (koff) in experiment [22] is 0.0057 s⁻¹; in experiment [23], 0.021 s⁻¹. Further, the figures for the on-rate constant (kon) in [22] and in [23] were 70000 M⁻¹ s⁻¹ and 40000 M⁻¹ s⁻¹, respectively. For the same molecule, in [27], the ΔΔΔGbinding is -1.93 kcal/mol.

B9: bH1-P5P8-FSA (antibody, human IgG1, kappa, V domains shown)
VH: not shown
VL: B1 VL with H31R, S32H
notes: also called bH1-P5P8 full-size antibody
In the case of B9, the “internalization of FITC conjugated antibody into BT474 cells, pH 6.4” value in [29] is 2 fold over negative control. The Kd was ~290 nM in [3], 12.3 nM in experiment [7], 15.1 nM in experiment [10] and 21.7 nM in experiment [11]. Moreover, the half-maximal effective concentration (EC50 (read off the curve)) in [4] was ~10 nM; in experiment [5] it was ~10 nM; in experiment [6], ~20 nM.
